Measurements reported in US20090208447A1 (MEDIGENE, published 2009).

Legend:
[1] = biological target: T1, HLA-A*0201 loaded with the Carcinoembryonic antigen (CEA)-derived … peptide (biotinylated on the C-terminal biotinylation tag); test: SPR (Biacore), method of Example 4
[2] = biological target: T1, HLA-A*0201 loaded with the …; test: SPR (Biacore 3000), biotinylated pMHC immobilised on streptavidin
[3] = biological target: T1, HLA-A*0201 loaded with the …; test: SPR (Biacore), Example 4

Binder | koff [1] [s⁻¹] | Kd [2] [nM] | Kd [3] [nM] | koff [3] [s⁻¹]
soluble truncated variant of the Wild-Type ILT-2 molecule (extracellular domains D1 and D2) (receptor, also called soluble wild-type ILT-2 polypeptide; soluble two domain form of the wild-type ILT-2) MGHLPKPTLWAEPGSVITQGSPVTLRCQGGQETQEYRLYREKKTAPWITRIPQELVKKGQFPIPSITWEHAGRYRCYYGSDTAGRSESSDPLELVVTGAYIKPTLSAQPSPVVNSGGNVTLQCDSQVAFDGFILCKEGEDEHPQCLNSQPHARGSSRAIFSVGPVSPSRRWWYRCYAYDSNSPYEWSLPSDLLELLVL | 2.4 | ~6000 |  | 
SEQ ID NO 78 (receptor) MHLPKPTLWAEPGSVITMDQPVTLRCQGGQETQEYRLYREKKTAPWITRIPQELVKKGQFPIPSITWEHAGRYRCYYGSDTSQWSASSDPLELVVTGVYIKPTLSAQPSPVVNSGGNVTLQCDSQVAFDGFILCKEGEDEHPQCLNSQPHARGSSRAEFSVGPVSPSRRWWYRCYAYDSNSPYEWSLPSDLLELDVDG |  |  | ≤ 1000 | ≤ 2
SEQ ID NO 79 (receptor) MHLPKPTLWAEPGSVITMDQPVTLRCQGGQETQEYRLYREKKTAPWITRIPQELVKKGQFPIPSITWEHAGRYRCYYGSDTSQWSASSDPLELVVTGVYIKPTLSAQPSPVVNSGGNVTLQCDSQVAFDGFILCKEGEDEHPQCLNSQPHARGSSRAIFSVGPVSPSRRWWYRCYAYDSNSPYEWSDPSDLLELDVDG |  |  | ≤ 1000 | ≤ 2
SEQ ID NO 80 (receptor) MHLPKPTLWAEPGSVITMDQPVTLRCQGGQETQEYRLYREKKTAPWITRIPQELVKKGQFPIPSITWEHAGRYRCYYGSDTSQWSASSDPLELVVTGVYIKPTLSAQPSPVVNSGGNVTLQCDSQVAFDGFILSKEGEDEHPQSLNSQPHARGSSRAIFSVGPVSPSRRWWYRCYAYDSNSPYEWSLPSDLLELDVDG |  |  | ≤ 1000 | ≤ 2
SEQ ID NO 76 (receptor) MGHLPKPTLWAEPGSVITMDQPVTLRCQGGQETQQYRLYREKKTAPWITRIPQELVKKGQFPIPSITWEHAGRYRCYYGSDTRQWSASSDPLELVVTGVYIKPTLSAQPSPVVNSGGNVTLQCDSQVAFDGFILCKEGEDDHPQCLNSQPHARGSSRAIFSVGPVSPSRRWRYRCYAYDSNSPYEWSLPSDLLELDVDG |  |  | ≤ 1000 | ≤ 2
